Source: US6716597B2, “Methods and products for regulating cell motility” (priority 2000, dated 2004)

B1: APPPP-mito: Control of FPPPP-mito with phenylalanine changed to alanine in each repeat; does not bind Ena/VASP proteins (protein)
chain: VNASDAPPPPTDEELRLALPETPMLLGFNAPATSEPSSFEAPPPPTDEELRLALPETPMLLGFNAPATSEPSSFEAPPPPTEDELEIIRETASSLDSSFTRGDLASLRNAINRHSQNFSDAPPIPTEEELNGRGGRPTSEEFSSLNSGDFTDDENSETTEEEIDRLADLRDRGTGKHSRNAGFLPLNPFASSPVPSLSPKVSKISAPALISDITKKTPFKNPSQPLNVFNKKTTTKTVTKKPTPVKTAPKLAELPATKPQETVLRENKTPFIEKQAETNKQSINMPSLPVIQKEATESDKEEMKPQTEEKMVEESESANNANGKNRSAGIEEGKLIAKSAEDEKAKEEPGNHTTLILAMLAIGVFSLGAFIKIIQLRKNN
modifications: left off: large carriers
B2: EGFP-Mena: EGFP fused to full-length Mena (amino acids 1-541 of SEQ ID NO: 2), expressed from retroviral vector pMSCV (protein)
chain: MSEQSICQARAAVMVYDDANKKWVPAGGSTGFSRVHIYHHTGNNTFRVVGRKIQDHQVVINCAIPKGLKYNQATQTFHQWRDARQVYGLNFGSKEDANVFASAMMHALEVLNSQEAAQSKVTATQDSTNLRCIFCGPTLPRQNSQLPAQVQNGPSQEELEIQRRQLQEQQRQKELERERMERERLERERLERERLERERLEQEQLERQRQEREHVERLERERLERLERERQERERERLEQLEREQVEWERERRMSNAAPSSDSSLSSAPLPEYSSCQPPSAPPPSYAKVISAPVSDATPDYAVVTALPPTSTPPTPPLRHAATRFATSLGSAFHPVLPHYATVPRPLNKNSRPSSPVNTPSSQPPAAKSCAWPTSNFSPLPPSPPIMISSPPGKATGPRPVLPVCVSSPVPQMPPSPTAPNGSLDSVTYPVSPPPTSGPAAPPPPPPPPPPPPPPPLPPPPLPPLASLSHCGSQASPPPGTPLASTPSSKPSVLPSPSAGAPASAETPLNPELGDSSASEPGLQAASQPAESPTPQGLVLG
modifications: left off: large carriers

Columns and labels:
Rat2 cells [1] = assay: Count of vinculin- or zyxin-positive focal adhesions per cell; type: cell-based, rat; conditions: Rat2 cells after complete spreading
Method: Rat2 cells (ATCC, Manassas, Va.) were plated and allowed to spread for 1.5-2 hours on acid-washed glass coverslips that had been coated overnight at 4° C. with 10 μg/mL fibronectin (Becton Dickinson, Franklin Lakes, N.J.). Cells were fixed with ice-cold 4% paraformaldehyde in PBS for 10 minutes at room temperature. Cells were washed twice with PBS and then permeabilized with 0.2% Triton X-100 in PBS for 3 minutes and washed two more times with PBS. Coverslips were blocked for 30 minutes in 5% BSA (RIA grade)/5% normalized Donkey serum in PBS. All subsequent antibody steps were incubated in 1% BSA/PBS for at least 30 minutes and washes were in PBS. Anti-Mena polyclonal antisera (2197, produced by Gertler laboratory) was used at 1:400, anti-VASP polyclonal antisera (M4, Alexis Corporation, San Diego, Calif.) was used at 1:400, coumarin-phallicidin (Molecular Probes Inc., Eugene, Oreg.) was used at 1:20, anti-vinculin monoclonal antibody (F7g, a kind gift from K. Burridge) was used at 1:20. All secondary antibodies (Texas Red-, Cy5-Donkey anti-rabbit or anti-mouse, Jackson ImmunoResearch Laboratories, Inc., West Grove, Pa.) were used at 1:500. Coverslips were mounted with Fluoromount G (Electron Microscopy Sciences, Fort Washington, Pa.) and viewed on a Zeiss Axiophot microscope equipped with a Deltavision imaging and software system (Applied Precision Inc., Issaquah, Wash.).
Cell-population analysis was undertaken to explore the hypothesis that focal adhesion formation and number are unaffected by overexpression or sequestration of Ena/VASP proteins. Because cell migration depends on adhesion as well as actin polymerization at the leading edge, the various cell populations were analyzed to determine if the assembly, morphology or distribution of focal adhesions was affected. EGFP-Mena overexpressing (the “high ” population), FPPPP-mito (SEQ ID NO: 3) and control cells were each stained after complete spreading with a battery of focal adhesion markers (FAK, vinculin, paxillin, tensin, phosphotyrosine, and zyxin).

Rat2 fibroblasts = assay: Time-lapse videomicroscopy random migration assay (cell speed, polarity); type: cell-based, rat; conditions: Rat2 cells expressing the construct
Method: (§1) Cells adapted to microscopy media (Life Technologies, Rockville, Md.) as described above were trypsinized, counted, and resuspended in microscopy media at 7.14×10^3 cells/mL. 1.4 mL (10,000 cells) of this cell suspension was added to a ΔT dish (Bioptechs Inc., Butler, Pa.) that had previously been coated overnight with 10 μg/mL fibronectin (Becton Dickinson) at 4° C. and then blocked with lmg/mL cell-culture-grade BSA (Sigma, St. Louis, Mo.). Cells were allowed to attach and spread for 1 hour at 37° C. before movies were initiated. 10x phase contrast movies were 4.5 hours long with a frame taken every five minutes. A custom time-lapse collection script written in IPLabs was used to automate microscope and camera function. Light was shutter controlled. […] Cell paths were generated from the calculated centroid positions and parameters (speed and membrane flow) were calculated from the resulting path file. Speed was calculated using the Central Difference Method in DIAS, which is equivalent to a root mean squared calculation. […]
Rat 2 cells were exposed to 0, 5 nM, 25 nM, 50 nM, or 500 nM cytochalasin D and motility was measured. One set of cells received no cytochalasin D. Other cells received a low dose of cytochalasin D (e.g. 5 nM or 25 nM) or a high dose of cytochalasin D. (e.g. 500 nM) The motility of the treated cells was assessed using the motility assay described above.

MV^D7 cells = assay: Time-lapse videomicroscopy cell speed in Ena/VASP-deficient MV^D7 fibroblasts; type: cell-based, mouse; conditions: MV^D7 cells expressing the construct vs parental MV^D7
Method: as §1, with “controlled. Movies were considered analysis-quality if there were no focus or bubble problems and cells remained alive and dividing throughout the experiment. Once a movie met the quality control criteria, it was transferred into the image analysis program DIAS (Solltech, Inc., Oakdale, Iowa.) and cells were outlined using the Trace on Movie command.” for “controlled.”

Listeria = Listeria motility in MVD7 cells expressing Mena constructs; type: cell-based, Listeria monocytogenes; conditions: high expression level, compared with GFP-Mena high (FIG. 11)
Method: MVD7 cells were seeded onto a Bioptics dish the night before an experiment, and Listeria was also cultured overnight taking care to not over saturate the bacterial culture. MVD7 cells were then exposed to Listeria. The Bioptics dishes were centrifuged at 500×g for 3 min in a swinging bucket centrifuge to force the bacteria up against the MVD7 cells. The cells were then incubated for 1.5 hrs at 37° C. The plates were washed 3 times with media to remove bacteria not associated with cells. Bacteria were then viewed with 100x phase contrast microscopy. Time-lapse movies were recorded and speeds were quantitated with DIAS software.

Rat2 cells [2] = assay: Membrane flow (protrusion/retraction, shape change) from digitized movies; type: cell-based, rat; conditions: centroid fixed, independent of translocation
Method: as §1, with “controlled. Movies were considered analysis-quality if there were no focus or bubble problems and cells remained alive and dividing throughout the experiment. Once a movie met the quality control criteria, it was transferred into the image analysis program DIAS (Solltech, Inc., Oakdale, Iowa.) and cells were outlined using the Trace on Movie command.” for “controlled.”

Molecule | Number of Focal Adhesions per Cell (±SD), Vinculin+ (Rat2 cells [1]) | Number of Focal Adhesions per Cell (±SD), Zyxin+ (Rat2 cells [1]) | cell polarity / polarized morphology (Rat2 fibroblasts) | cell speed (Rat2 fibroblasts; fibronectin, 4.5 hour movies) | cell speed (MV^D7 cells) | Listeria motility (speed) (Listeria) | average membrane flow per unit time (shape change) (Rat2 cells [2])
B1 | 81.6 ± 13.9 | 79.2 ± 29 |  |  |  |  | 
B2 | 72.7 ± 14.4 | 73.6 ± 20 | distinct lack of polarity | cell speeds decreased with increasing levels of EGFP-Mena expression | The MV^D7 cells migrated significantly faster than the MV^D7/EGFP-Mena cells | wild-type Listeria are mobile in MVD7 cells that express EGFP-Mena | changed shape the least
